# Measured values taken from ChEMBL document CHEMBL2074286, “Active transport of the angiotensin-II antagonist losartan and its main metabolite EXP 3174 across MDCK-MDR1 and caco-2 cell monolayers” (Br J Pharmacol, 2000).
# Key:
# [1] = test system: CCCCc1nc(Cl)c(CO)n1Cc1ccc(-c2ccccc2-c2nn[nH]n2)cc1; experiment: TP_TRANSPORTER: transepithelial transport (basal to apical) in MDR1-expressing MDCK cells; format: functional, cell-based
# [2] = test system: CCCCc1nc(Cl)c(CO)n1Cc1ccc(-c2ccccc2-c2nn[nH]n2)cc1; experiment: TP_TRANSPORTER: transepithelial transport (basal to apical) in Caco-2 cells; format: functional, cell-based
substance,measurement,setting,value
ATP-dependent translocase ABCB1 (Homo sapiens),Km,[1],403 µM
same,Km,[2],232 µM
